# Data: the supplement of paper PMC12764529
# ± gives the half width of the 95% confidence interval.
# Legend:
# [1] = folding stability dG unfold (combined trypsin and chymotrypsin); higher = more stable
# In short: (§1)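 Unfolding free energy was derived, per protease or combined, against a sequence-predicted unfolded-state K50 and a shared folded-state K50, starting from K50 inferred by Bayesian fitting of sequencing counts. Digestion with trypsin and chymotrypsin was carried out on designed mini-proteins under 80 residues without cysteine in a PA-tagged cDNA display construct. Only designs with AlphaFold2 dimer inter-PAE above 15 were kept.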
# [2] = folding stability dG unfold from chymotrypsin proteolysis; higher = more stable
# In short: as §1
# [3] = folding stability dG unfold from trypsin proteolysis; higher = more stable
# In short: as §1
sequence,measurement,setting,value
SAGGSAGGSAGGMEIEFEKAKFEIEEIDPEKGKIKVKFPGLEKEFEIEFDKKGKIVKISGSAGGSAGGSAGG [r7_553_TrMRF],folding stability dG unfold,[1],0.612 ± 0.12 kcal/mol
same,folding stability dG unfold,[2],0.959 ± 0.036 kcal/mol
same,folding stability dG unfold,[3],0.228 ± 0.057 kcal/mol
SAGGSMVTLTTTETSVEGERTVEVSTLGSKTVTTTFEPESDSSTVTTSPVPPVAGPELLALNLLLLSAGGSA [r2_482_JUSTAS],folding stability dG unfold,[1],0.189 ± 0.082 kcal/mol
same,folding stability dG unfold,[2],-0.102 ± 0.18 kcal/mol
same,folding stability dG unfold,[3],0.291 ± 0.079 kcal/mol
SLPNRPLVPFELELRLPRFEVRVRLYRLPDGSYLLVAEIRFPNGLTARAEFVLDPVTGRIYLVRVEVRPESA [r9_795_TrMRF],folding stability dG unfold,[1],4.29 ± 0.05 kcal/mol
same,folding stability dG unfold,[2],4.56 ± 0.05 kcal/mol
same,folding stability dG unfold,[3],3.82 ± 0.041 kcal/mol
SAGGMELFELEFEAEITPLEEPDKPVPVKIRILKRVEPVPNEPGFKVHYRALLENEEGVVPFEFTLDSAGGS [r16_300_TrMRF],folding stability dG unfold,[1],1.42 ± 0.085 kcal/mol
same,folding stability dG unfold,[2],1.74 ± 0.085 kcal/mol
same,folding stability dG unfold,[3],0.998 ± 0.055 kcal/mol
SAPPIEELSEEEIKKLVEEELKKKGISPENVKIEITIEKPPGPEYRVKVKVTYKKNKNYLEFEFEFELPSAG [r14_703_JUSTAS],folding stability dG unfold,[1],3.96 ± 0.33 kcal/mol
same,folding stability dG unfold,[2],4.23 ± 0.17 kcal/mol
same,folding stability dG unfold,[3],2.34 ± 0.2 kcal/mol
SAGGSAGGSASPRTYKYKFTIKYPDGSTSEYEIVDEEDKAKEKIKKEYGAEEIELEIEPEESAGGSAGGSAG [r3_220_JUSTAS],folding stability dG unfold,[1],0.637 ± 0.28 kcal/mol
same,folding stability dG unfold,[2],1.39 ± 0.19 kcal/mol
same,folding stability dG unfold,[3],-0.218 ± 0.41 kcal/mol
SAGGSAGGSAMKKLEYTIPVPPGTLSPEKVKELFKKKYPEYENKEIKVEFSPDGTVKITVIESAGGSAGGSA [r18_65_JUSTAS],folding stability dG unfold,[1],2.92 ± 0.066 kcal/mol
same,folding stability dG unfold,[2],3.17 ± 0.037 kcal/mol
same,folding stability dG unfold,[3],2.38 ± 0.051 kcal/mol
SAGGSAGGSAMTIVVKSEEEAKKLAELLNAEVVEEKDGYLTIKLEGMSEEERKKILELLKKSAGGSAGGSAG [r3_398_TrROS_Hall],folding stability dG unfold,[1],2.71 ± 0.11 kcal/mol
same,folding stability dG unfold,[2],3.03 ± 0.17 kcal/mol
same,folding stability dG unfold,[3],1.96 ± 0.13 kcal/mol
SAGGSAGGSMEIIGSFTFPNPNGMNIKVNVYRNPEEKKWWAKVEIWDGGKPKTHTMPLDDFLKSAGGSAGGS [r12_1063_TrROS],folding stability dG unfold,[1],1.73 ± 0.1 kcal/mol
same,folding stability dG unfold,[2],2.06 ± 0.088 kcal/mol
same,folding stability dG unfold,[3],1.23 ± 0.042 kcal/mol
SIMIMIPPGEEIEITIEKLKDVEVMIFNNGKVREQRVPPGEEIKFELPPGAKGFMIMIKGPNGKAQMITLSA [r9_143_TrROS],folding stability dG unfold,[1],2.66 ± 0.4 kcal/mol
same,folding stability dG unfold,[2],2.75 ± 0.081 kcal/mol
same,folding stability dG unfold,[3],2.74 ± 0.25 kcal/mol
SAGGSAGGSAGPPNIKMEPETRTYVLPGGWAIRVSIMKIKPPDGKPLIMAMEEIIPPDDPSAGGSAGGSAGG [r17_312_TrROS],folding stability dG unfold,[1],1.27 ± 0.31 kcal/mol
same,folding stability dG unfold,[2],1.27 ± 0.23 kcal/mol
same,folding stability dG unfold,[3],0.958 ± 0.1 kcal/mol
SAGGLYVFDKNGKIISKVPKVEPIPIVITFPDGEKVLFEKYPGLNIIVVSYEGENPEKVKEAVKKILSSAGG [r13_701_TrMRF],folding stability dG unfold,[1],0.977 ± 0.13 kcal/mol
same,folding stability dG unfold,[2],1.06 ± 0.14 kcal/mol
same,folding stability dG unfold,[3],0.835 ± 0.075 kcal/mol
SAGGSAAPEDTLVEEEVEIVTEETDPKLGGKKIVTTKVKRLIRYFPEKGELEVETVETETTVYPNESAGGSA [r15_517_JUSTAS],folding stability dG unfold,[1],0.111 ± 0.1 kcal/mol
same,folding stability dG unfold,[2],0.416 ± 0.084 kcal/mol
same,folding stability dG unfold,[3],-0.644 ± 0.47 kcal/mol
SAGGSAGGSKKIIRFKTKEEAEEALKKAKPGETLEITLPNGEKIEVKVTKVERVDGYYYIEVESAGGSAGGS [r12_907_TrROS_Hall],folding stability dG unfold,[1],3.13 ± 0.07 kcal/mol
same,folding stability dG unfold,[2],3.44 ± 0.077 kcal/mol
same,folding stability dG unfold,[3],2.53 ± 0.08 kcal/mol
SAGGSAGGSAGGGNMTITVMIPIEIPVFKYDGGKPEFEPFPIYIMVEVTVPEGAPLEEFSAGGSAGGSAGGS [r10_633_TrROS],folding stability dG unfold,[1],1.79 ± 0.068 kcal/mol
same,folding stability dG unfold,[2],1.49 ± 0.027 kcal/mol
same,folding stability dG unfold,[3],2.1 ± 0.076 kcal/mol
SGMLLTVATKTEESELPDGGKKKVTTTTVELSGPHSVTYTPVTTLAPDGTVPASTTTVYDTVSGETTTAPSA [r9_641_JUSTAS],folding stability dG unfold,[1],0.145 ± 0.074 kcal/mol
same,folding stability dG unfold,[2],-0.2 ± 0.058 kcal/mol
same,folding stability dG unfold,[3],0.259 ± 0.032 kcal/mol
SELAEEAAKRAREAFAEEHPGWDVLSVEVEVEKDPNNDVVTVTVKLTLRRESPEPREEVLEEEVTLTFPLKS [r1_181_JUSTAS],folding stability dG unfold,[1],2.91 ± 0.067 kcal/mol
same,folding stability dG unfold,[2],3.24 ± 0.043 kcal/mol
same,folding stability dG unfold,[3],2.14 ± 0.05 kcal/mol
SPDVKILDIERHPDDGSISIKLKFPDGWPVTLHYNPDGSHTIHNPGNGAPIQIKYDGNQLKIELPDNLKFSA [r9_233_TrROS],folding stability dG unfold,[1],0.729 ± 0.083 kcal/mol
same,folding stability dG unfold,[2],0.868 ± 0.086 kcal/mol
same,folding stability dG unfold,[3],0.478 ± 0.023 kcal/mol
SAGGSAGGAIGTIDYNGKPLRLSVYLPDNPRVFEYPVDGDPLVFAAELNRETGFDVTDVVVVGGSAGGSAGG [r6_762_TrMRF],folding stability dG unfold,[1],0.132 ± 0.14 kcal/mol
same,folding stability dG unfold,[2],0.033 ± 0.18 kcal/mol
same,folding stability dG unfold,[3],0.291 ± 0.098 kcal/mol
SAGGSAGGSAKIKPGEKVEITLKDGSKVIIEKKEDGKYLARIIDKKTNEVKTVPLDKIKLVSAGGSAGGSAG [r3_213_TrROS_Hall],folding stability dG unfold,[1],1.13 ± 0.14 kcal/mol
same,folding stability dG unfold,[2],1.08 ± 0.046 kcal/mol
same,folding stability dG unfold,[3],0.99 ± 0.057 kcal/mol
SAGGSAGGSALPDLEFPFELVEEVEVPVYDPLSDEVLGTVRVWKVRVPGGPELTLVEFDPESAGGSAGGSAG [r3_166_TrMRF],folding stability dG unfold,[1],1.35 ± 0.061 kcal/mol
same,folding stability dG unfold,[2],1.3 ± 0.047 kcal/mol
same,folding stability dG unfold,[3],1.27 ± 0.017 kcal/mol
SAGGGMPTSIVLPLTVSPENVEEAIAALKAQLEAQGYTLLEVNPVKDGNTWKLRAVFRAPDGTLVTDESAGG [r13_421_JUSTAS],folding stability dG unfold,[1],3.26 ± 0.059 kcal/mol
same,folding stability dG unfold,[2],3.313 ± 0.017 kcal/mol
same,folding stability dG unfold,[3],3.11 ± 0.079 kcal/mol
SAGGSAGGSAGGGMPSVTVTPVTLTVPTEVLVDGGPLLREREVRLTVITYPYTNTVVVDSAGGSAGGSAGGS [r10_533_JUSTAS],folding stability dG unfold,[1],0.23 ± 0.099 kcal/mol
same,folding stability dG unfold,[2],0.494 ± 0.16 kcal/mol
same,folding stability dG unfold,[3],-0.474 ± 0.2 kcal/mol
SAGGSAGGSALLEALKALPPNATLTLVTVETRTETVTDADGSTHTRTTTRVTVTTITIRPEDLSAGGSAGGS [r12_805_TrROS_Hall],folding stability dG unfold,[1],3.18 ± 0.12 kcal/mol
same,folding stability dG unfold,[2],3.67 ± 0.089 kcal/mol
same,folding stability dG unfold,[3],2.27 ± 0.12 kcal/mol
SAGGSAGGSASLEEIKERAREEILKKHPDLPPDEPLTVTVKDPNSSNEYTITFNADGTVVESAGGSAGGSAG [r3_441_JUSTAS],folding stability dG unfold,[1],0.837 ± 0.098 kcal/mol
same,folding stability dG unfold,[2],0.814 ± 0.052 kcal/mol
same,folding stability dG unfold,[3],0.677 ± 0.027 kcal/mol
SAGGSAGGMIKIKLKNGEVLYIDPKKPVLYFNKEKKIIPVKKDKIEKALKELEKKGFKIEKIDPSAGGSAGG [r6_337_TrMRF],folding stability dG unfold,[1],0.0657 ± 0.15 kcal/mol
same,folding stability dG unfold,[2],-0.0347 ± 0.31 kcal/mol
same,folding stability dG unfold,[3],-0.249 ± 0.28 kcal/mol
SAGGSAPPPPETVRIRVRITLPDGRTLEIEIEVSREEAERLAKELADRLRELGYEVKVEIVEVEEVSAGGSA [r2_274_TrROS_Hall],folding stability dG unfold,[1],4.51 ± 0.32 kcal/mol
same,folding stability dG unfold,[2],3.14 ± 0.28 kcal/mol
same,folding stability dG unfold,[3],4.34 ± 0.31 kcal/mol
SAGGTSYLVRLELYETSTGEPLELELPFPNLPAEEVEELAKELAKALAEPTGNDLKARVEVVPLPDESAGGS [r8_185_TrMRF],folding stability dG unfold,[1],0.53 ± 0.052 kcal/mol
same,folding stability dG unfold,[2],0.717 ± 0.054 kcal/mol
same,folding stability dG unfold,[3],0.0944 ± 0.031 kcal/mol
SMEVEFDPENRTIVATVPEGVDPLAVAATLLAVVRELFDSGPVRLIVTNGDEVLEYLLGEDVLEVRPAGESA [r9_224_TrMRF],folding stability dG unfold,[1],4.01 ± 0.1 kcal/mol
same,folding stability dG unfold,[2],4.21 ± 0.11 kcal/mol
same,folding stability dG unfold,[3],3.26 ± 0.11 kcal/mol
SAGGSAGGSAGLKVIEADTLEEVLEAIKEAPKDEPLLLILRNPSTGVDSVLLFDGDKIVLGGSAGGSAGGSA [r18_407_TrMRF],folding stability dG unfold,[1],0.909 ± 0.06 kcal/mol
same,folding stability dG unfold,[2],0.595 ± 0.09 kcal/mol
same,folding stability dG unfold,[3],1.09 ± 0.029 kcal/mol
SAGMKVLKFKSKEELLEAIDKSPEPVLVINKKTGKKEVLSKEELKKKLKPGDEIEIVLLKDLSPEELKKSAG [r5_677_TrROS_Hall],folding stability dG unfold,[1],1.4 ± 0.14 kcal/mol
same,folding stability dG unfold,[2],1.78 ± 0.14 kcal/mol
same,folding stability dG unfold,[3],1.05 ± 0.097 kcal/mol
